Legend:
[1] = target: T1, Cynomolgus PSGL-1(ECD)-hFc1 (cynomolgus macaque); test: ELISA, 20 nM mAb on plate cyno PSGL-1(ECD)-Fc
T1 construct: also called Cyno PSGL1-Fc; Cyno PSGL-1(ECD)-Fc
Experimental: (§1) Antibody binding to plate-immobilized cyno PSGL-1(ECD) was determined either at one concentration (20 nM) or by generating full antibody binding curves (0.003-200 nM). A typical ELISA was performed by overnight coating at 4° C. with 3 ug/mL/25 ul per well of recombinant cyno PSGL-1(ECD) protein in PBS, pH 7.4, in high binding half-well plates (Corning Cat. #3690). […] Anti-PSGL-1 IgG in assay buffer (blocking buffer containing 0.05% tween 20) was added into test and control wells (20 nM/25 ul/well) and the plate incubated for 45 min at 37° C. […] The plate was incubated for 45 min at 37° C., and mAb bound to plate-immobilized target determined at A450 nm using HRP substrate (3,3′,5,5′-tetramethylbenzidine (TMB)). For each antibody, duplicate values were averaged and assay background subtracted.

[2] = target: T2, Recombinant human PSGL-1(ECD)-hFc1 (R&D Systems, Cat. 3345-PS) (human, UniProt Q14242 42-305); test: blocking ELISA vs L-selectin-Fc
T2 construct: Bought; Gln42-Val295 counted on AAC50061; also called PSGL-1-Fc; PSGL-1-hFc1 chimera; not shown: human IgG1 Fc, Pro100-Lys330
T2 sequence: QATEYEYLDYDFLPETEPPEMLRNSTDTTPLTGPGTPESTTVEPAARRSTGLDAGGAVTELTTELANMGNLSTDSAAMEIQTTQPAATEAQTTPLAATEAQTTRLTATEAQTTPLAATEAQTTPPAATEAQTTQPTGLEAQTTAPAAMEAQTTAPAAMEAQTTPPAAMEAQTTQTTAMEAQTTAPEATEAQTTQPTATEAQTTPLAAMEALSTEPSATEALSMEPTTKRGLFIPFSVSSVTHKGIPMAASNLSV
Experimental: A typical selectin blocking ELISA assay involved coating high binding half-well plates (Corning, Cat. #3690) with 2.5 ug/mL/25 ul per well of recombinant PSGL-1-Fc protein (R&D Systems, Cat #3345-PS) in PBS, pH 7.4, overnight at 4° C. […] Antibody (test and controls) was serially diluted (25 ul/well) in duplicate in assay buffer (3% BSA in wash buffer) into appropriate wells and the plate incubated for 45 min at 37° C. […] The plate was washed ×3 and HRP-conjugated streptavidin was added in assay buffer [25 ul per well; (Jackson Immunoresearch, Cat. #016-030-084)] and the plate incubated for 45 min at 37° C. […] For each antibody, an IC50 value was determined from sigmoidal fitted titration curves.

[3] = target: T3, Cynomolgus PSGL-1(ECD)-HIS (cynomolgus macaque); test: ELISA, plate cyno PSGL-1(ECD)-HIS
T3 construct: also called Cyno PSGL1-His
T3 chain: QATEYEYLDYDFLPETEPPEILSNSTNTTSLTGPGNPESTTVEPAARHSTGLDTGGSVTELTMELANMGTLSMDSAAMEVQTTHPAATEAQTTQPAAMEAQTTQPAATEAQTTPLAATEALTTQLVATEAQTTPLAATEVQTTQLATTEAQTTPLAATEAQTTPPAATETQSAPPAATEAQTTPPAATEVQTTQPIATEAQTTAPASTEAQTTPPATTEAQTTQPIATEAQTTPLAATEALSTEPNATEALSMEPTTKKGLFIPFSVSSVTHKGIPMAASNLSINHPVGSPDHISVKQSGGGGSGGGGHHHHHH
Experimental: as §1

B1: 03F03 (antibody, V domains shown)
VH: QVQLQESGPGLVKPSETLSLTCTVSGGSISSSSYYWGWIRQPPGKGLEWIGSIYYSGSTYYNPSLKSRVTISVDTSKNQFSLKLSSVTAADTAVYYCARSRPRPWAFDIWGQGTMVTVSS
VL: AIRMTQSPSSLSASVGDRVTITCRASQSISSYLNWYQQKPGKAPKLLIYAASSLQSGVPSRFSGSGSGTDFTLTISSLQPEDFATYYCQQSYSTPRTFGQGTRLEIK
A450nm [1]: 0.58 A450 nm

B2: 09D04 (antibody, IgG4, V domains shown)
VH: QVQLQQSGGGLVQPGGSLTLSCVGSGFDFRSYAMSWVRQAPGKGLEWVSGINNSGSKTYYADFVKGRFSVSRDNSKNIVWLRMRSLRAEDTAVYYCARRTFGPPHAWGQGTMVTVSS
VL: DVVMTQSPLSLPVTPGEPASISCRSSQSLLHSNGYTYLEWYLHKPGQSPQLLIYLGSNRASGVPDRFSGSGSGTDFTLKISRVEAEDVGVYYCMHSLHIPFTFGPGTKVDIK
A450nm [1]: 1.93 A450 nm

B3: 11D10 (antibody, IgG4, V domains shown)
VH: EVKLLESGGGLVQPGGSLRLSCAVSGFTFSTSAMIWVRQAPGKGLEWVSFISGSTSNTYYADSVKGRFTISRDNSKNTLYLQMNGLTAEDTAVYYCARGTAAATWGQGALVTVSS
VL: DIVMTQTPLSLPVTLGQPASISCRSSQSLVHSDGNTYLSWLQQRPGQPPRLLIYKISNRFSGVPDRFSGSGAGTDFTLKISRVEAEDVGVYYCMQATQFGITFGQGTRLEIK
A450nm [1]: 1.4 A450 nm

B4: 05H03 (antibody, IgG4, V domains shown)
VH: QVQLQQSGGGLVQPGGSLTLSCVGSGFDFRSYAMSWVRQAPGKGLEWVSGINNSGSKTYYADFVKGRFSVSRDNSKNIVWLRMRSLRAEDTAVYYCARRTFGPPHAWGQGTMVTVSS
VL: DIVMTQSPLSLSVTPGEPASISCRSSQSLLHSNGYKYLDWYLQKPGQSPQLLIYMGSNRASGVPDRFSGSGSGTDFTLKISRVEAEDVGVYYCMQGLQSPLTFGGGTKVEIE
A450nm [1]: 2.01 A450 nm

B5: 09A08 (antibody, IgG4, V domains shown)
VH: QVQLVQSGAAVKKPGESLKISCKGSGYTFSNYWIGWVRQMPGKGLEWMGIIYPGDSDTRYSPSFQGQVTISADKSISTAYLQWSSLKASDTAMYYCARHIVGPPKSAFDIWGQGTMVTVSS
VL: DIVMTQTPLSLPVTLGQPASISCSSSQGLQKRDGNTYLNWFQQRPGQSPRRLIYKVSNRDSGVPDRFSGSGSGTDFTLKISRVEAEDVGVYYCMQGTHWPWTFGQGTRVEIK
A450nm [1]: 1.18 A450 nm

B6: 10F01 (antibody, IgG4, V domains shown)
VH: EVQLVQSGGGLVQPGGSLRLSCAASGFTFSSYAMSWVRQAPGKGLEWVSALRGGDGGTYHADSVKGRFTISGDSSKNTLYLQMNSLRAEDTAVYYCARRMVGAAYAFDIWGQGTMVTVSS
VL: LPVLTQPHSVSESPGKTVTISCTRSSGSIADNFVQWYRQRPGSAPTTVIYEGDQRPSGVPGRFSGSIDSSSNSASLTISGLQTDDEADYYCQSFDSYNRRTHVVFGGGTKLTVL
% max Block [2]: 100% | IC50 [2]: 6 nM | A450nm [1]: 1.22 A450 nm

B7: 03D07 (antibody, IgG4, V domains shown)
VH: EVKLLESGGGLVQPGGSLRLSCAASGFTFSSYALSWVRQAPGKGLEWVSAISGSGGNTYYADSVKGRFTISRDNSKNTLYLQMNSLRAEDTAVYYCAKVVGATNYWGQGTLVTVSS
VL: DIVMTQTPLSLPVTLGQPASISCRSSQSLVYSDGHTYLSWFHQRPGQSPRRLIYKVSIRDSGVPDRFSGSGSGTDFTLKISRVEAEDVGVYYCMQRLQIPLTFGGGTKVEIK
% max Block [2]: 100% | IC50 [2]: 6 nM | A450nm [1]: 0.74 A450 nm

B8: 07E07 (antibody, IgG4, V domains shown)
VH: QVQLQQSGAEVKKPGASVKVSCKASGYTFTSYYMHWVRQAPGQGLEWMGIINTSSGSTKYAQRFQDRVTVTRDTSTTTVYMELNSLRSEDTAVYYCARGGRAYSGSFDNWGQGTLVTVSS
VL: DVVMTQSPLSLPVTLGQPASISCRSSQSLVHRDGNTYFNWFQQRPGQSPRRLIYKVSNRDSGVPDRFSGSGSGTDFTLKISRVEAEDVGVYYCMQATHWPRTFGQGTKVEIK
A450nm [1]: 0.38 A450 nm

B9: 05A11 (antibody, IgG4, V domains shown)
VH: EVKLLESGGGVVQPGRSLRLSCAASGFSFSAYGMHWVRQAPGKGLEWVSSISGSGDGTYYADSVKGRFTISRDNSKNTLYLQMNSLRAEDAAVYYCAKSVKGRGYFFDYWGQGTLVTVSS
VL: DIVLTQSPSSLSASVGDRVTITCRASQSISSYLNWYQQKPGKAPKLLIYAASSLQSGVPSRFSGSGSGTDFTLSISNLQPEDFATYYCQQAYKFPRSFGGGTKVEFK
A450nm [1]: 0.7 A450 nm

B10: 05C02 (antibody, V domains shown)
VH: EVKLLESGGGVVQPGRSLRLSCAASGFTFKNFAMHWVRQAPGKGLEWVAVISYDGSSEDYADSVKGRFTLSRDNAKNSLYLQMNNLRAEDTAVYYCARGRRPDYWGQGTLVTVSS
VL: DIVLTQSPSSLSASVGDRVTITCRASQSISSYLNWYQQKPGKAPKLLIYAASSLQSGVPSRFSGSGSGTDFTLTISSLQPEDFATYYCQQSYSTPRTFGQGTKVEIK
A450nm [1]: 0.64 A450 nm

B11: 09A02 (antibody, IgG4, V domains shown)
VH: EVQLVQSGGGLVKPGGSLRLSCAASGFTFRTAWMSWVRQAPGKGLEWVGRMKSKNDGGTTDYAAPVKGRFTISRDDSRDTVYLQMNSLKTEDTGVYYCATYAAGATVPWGQGTLVTVSS
VL: DIVMTQTPLSAPVTLGQPASISCRSSRSLLQRNGYNYVDWYQQKAGNPPRLLIYLGSRRASGVPDRFSGSGSDKDFTLKISRVEADDVGFYFCKQSLQAPPTFGGGTKIEIT
A450nm [1]: 0.73 A450 nm

B12: 06A07 (antibody, IgG4, V domains shown)
VH: QVQLVQSGPELKNPGASVKVSCKASGYSFTNFYINWVRQAPGRGLEWVGWISPNNGNTHYARNLQGRVTMTTDTSTNTAYLELKNLRSDDTAIYFCGRSVSMGYWGQGTLVTVSS
VL: LPVLTQPPSVSKGLRQTATLTCTGNSKNVGNQGAAWLQQHQGQPPKLLSYRNNNRPSGISERFSASRSGNTASLTITGLQPEDEADYYCSAWDSSLSAQVFGGGTKLTVL
A450nm [1]: 1.27 A450 nm

B13: 09C10 (antibody, V domains shown)
VH: EVKLLESGGGLIQPGGSLRLSCAASGFTVSNNYVTWVRQAPGKGLELVSSIYSGGGTYYADSVKGRFTISRDNSKNTVYLQMNSLRADDTAVYYCARNVPVTNFGYWGQGTLVTVSS
VL: DIVMTQSPLSLPVTLGQPASISCRSSQSLVYRDGNTYLNWFQQRPGQSPRRLIYKVSNRDSGVPDRFSGSGSGTDFTLKISRVEAEDVGVYYCMQLTHWPPGFAQGTKLEIK
A450nm [1]: 1.17 A450 nm

B14: 05E08 (antibody, IgG4, V domains shown)
VH: EVQLVQSGGGVVQPGRSLRLSCAASGFTFSTYAMHWVRQAPGKGLEWVAVISYDGSNKYYADSVKGRFTISRDNSRNTLFLQMNSLRDEDTAVYYCAKRGTMIRGERSLDFWGQGTLVTVSS
VL: AIQMTQSPSFLSASVGDRVTITCRASQGINSWLAWYQQKPGTAPNLLIHAASTLQSGVPSRFSGSRSGTEFTLTISSLQPEDFATYYCQQLQSYPLTFGQGTRLEIK
A450nm [1]: 0.77 A450 nm

B15: 06C04 (antibody, IgG4, V domains shown)
VH: EVQLVESGGGLVQPGGSLRLSCAASGFTFSDHYMDWVRQAPGKGLEWVGRSRNKVKSYTTAYAASVEGRITISRDDSKNSLYLEMNSLKTEDTAVYYCVRVRWGGAFDIWGQGTMVTVSS
VL: QPVLTQPPSASGSPGQSVTISCTGTSSDVGGYNYVSWYQQHPGKAPKLMIYEVSKRPSGVPDRFSGSKSGNTASLTVSGLQAEDEADYYCSSYAGSNNLRVFGGGTKLTVL
A450nm [1]: 0.55 A450 nm

B16: 16E17 (antibody, V domains shown)
VH: QIQLVQSGPELKKPGETVKISCKASGYAFTTYGMSWVKQAPGKGLKWMGWINTYSGVPKYADDFKGRFAFSLETSASTAYLHINNLKNEDTATYFCGRHYYGSSYFDYWGQGTTLTVSS
VL: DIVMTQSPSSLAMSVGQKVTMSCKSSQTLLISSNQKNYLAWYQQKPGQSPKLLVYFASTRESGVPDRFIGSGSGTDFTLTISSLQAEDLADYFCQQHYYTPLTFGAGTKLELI
notes: From mouse immunisation; only variable domains given
% max Block [2]: 0% | EC50 [3]: 0.53 nM

B17: 18K07 (antibody, V domains shown)
VH: QIQLVQSGPELKKPGETVKISCEASGYTFTTYGMNWVKQAPGKGLKWMGWINTYSGVPTYADDFQGRFAFSVETSATTAYLQINNLKNEDAATYFCARSDDTYYGFAYWGQGTLVTVSA
VL: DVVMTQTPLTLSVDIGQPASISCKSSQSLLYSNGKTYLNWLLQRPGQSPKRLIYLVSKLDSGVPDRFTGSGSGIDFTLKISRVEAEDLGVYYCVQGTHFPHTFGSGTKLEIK
notes: as for B16
% max Block [2]: 0% | EC50 [3]: 8.49 nM
